Measurements: patent US20020099172A1

Target: Xwnt-8 (Xenopus) (UniProt P28026)
Experiment: cell-based or functional assay

Chain of UniProt P28026 (P28026 23-358 limits assumed): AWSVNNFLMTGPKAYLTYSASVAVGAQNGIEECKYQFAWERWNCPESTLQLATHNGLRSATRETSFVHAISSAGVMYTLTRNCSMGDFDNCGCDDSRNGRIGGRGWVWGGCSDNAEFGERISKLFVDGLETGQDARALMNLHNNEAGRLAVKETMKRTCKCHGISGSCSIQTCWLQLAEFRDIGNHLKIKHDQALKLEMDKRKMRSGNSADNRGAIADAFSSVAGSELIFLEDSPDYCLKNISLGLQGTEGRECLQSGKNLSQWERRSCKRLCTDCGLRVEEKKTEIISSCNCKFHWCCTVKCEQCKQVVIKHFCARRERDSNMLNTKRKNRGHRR

Substance: frzb-1 (Xenopus, expressed from injected mRNA)
- embryos with secondary axes after injection of frzb-1 mRNA (animal blastomeres) and Xwnt-8 mRNA (vegetal-ventral blastomere); Xwnt-8 alone gave complete secondary axes in 67% of the embryos (n=53): 14%
